The text below walks through data of patent publication US20170306033A1 (Amgen, published 2017).

Numbering of substitutions follows the chain as printed.

To fix the notation:
T1: human PAC1 receptor (human, UniProt P41586 21-468)
T1 sequence: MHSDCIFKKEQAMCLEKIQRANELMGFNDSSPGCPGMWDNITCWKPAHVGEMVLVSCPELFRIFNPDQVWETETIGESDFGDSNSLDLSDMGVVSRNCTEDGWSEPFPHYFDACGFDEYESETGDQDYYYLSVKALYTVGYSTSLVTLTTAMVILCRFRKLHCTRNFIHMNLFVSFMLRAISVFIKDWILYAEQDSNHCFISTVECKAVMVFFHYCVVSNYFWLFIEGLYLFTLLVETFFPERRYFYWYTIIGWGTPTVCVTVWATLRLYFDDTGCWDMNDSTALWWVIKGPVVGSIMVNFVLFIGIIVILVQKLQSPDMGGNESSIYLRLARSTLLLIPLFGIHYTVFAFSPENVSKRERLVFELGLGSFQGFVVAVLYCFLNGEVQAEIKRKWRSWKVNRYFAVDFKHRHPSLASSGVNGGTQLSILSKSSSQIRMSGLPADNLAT

B1: iPS:327890 (bispecific antibody, human IgG1, kappa, lambda, N297G)
light 1: not shown
heavy 1: not shown
light 2: QSVLTQPPSVSAAPGQKVTISCSGSSSNIGNNYVSWYQQLPGTAPKLLIYDNNKRPSGIPDRFSGSKSGTSATLAITGLQTGDEADYYCGTWDSRLSAVVFGKGTKLTVLGQPKANPTVTLFPPSSEELQANKATLVCLISDFYPGAVTVAWKADGSPVKAGVETTKPSKQSNNKYAAKSYLSLTPEQWKSHRSYSCQVTHEGSTVEKTVAPTECS
heavy 2: QVQLVESGGGVVQPGRSLRLSCAASGFTFSSFGMHWVRQAPGKELEWVAVISFDGSIKYSVDSVKGRFTISRDNSKNTLFLQMNSLRAEDTAVYYCARDRLNYYDSSGYYHYKYYGMAVWGQGTTVTVSSASTKGPSVFPLAPSSKSTSGGTAALGCLVKDYFPEPVTVSWNSGALTSGVHTFPAVLQSSGLYSLESVVTVPSSSLGTQTYICNVNHKPSNTKVDKKVEPKSCDKTHTCPPCPAPELLGGPSVFLFPPKPKDTLMISRTPEVTCVVVDVSHEDPEVKFNWYVDGVEVHNAKTKPCEEQYGSTYRCVSVLTVLHQDWLNGKEYKCKVSNKALPAPIEKTISKAKGQPREPQVYTLPPSRKEMTKNQVSLTCLVKGFYPSDIAVEWESNGQPENNYKTTPPVLKSDGSFFLYSKLTVDKSRWQQGNVFSCSVMHEALHNHYTQKSLSLSPGK
B2: iPS:328047 (bispecific antibody, human IgG1, kappa, lambda, N297G)
light 1: DIQMTQSPSSLSASVGDRITITCRASQSISRYLNWYQQKPGKAPKLLIYAASSLQSGIPSRFSGSGSGTDFTLTINSLQPEDFATYFCQQSYSPPFTFGQGTKVDIKRTVAAPSVFIFPPSDEQLKSGTASVVCLLNNFYPREAKVQWKVDNALQSGNSQESVTEQDSKDSTYSLESTLTLSKADYEKHKVYACEVTHQGLSSPVTKSFNRGEC
heavy 1: not shown
light 2: B1 light 2 with A72T, A75G, K103G
heavy 2: B1 heavy 2 with E44G
B3: iPS:328042 (bispecific antibody, human IgG1, kappa, lambda, N297G)
light 1: B2 light 1
heavy 1: not shown
light 2: not shown
heavy 2: not shown
B4: iPS:328045 (bispecific antibody, human IgG1, kappa, lambda, N297G)
light 1: B2 light 1
heavy 1: not shown
light 2: not shown
heavy 2: not shown
B5: iPS:328040 (bispecific antibody, human IgG1, kappa, lambda, N297G)
light 1: B2 light 1
heavy 1: not shown
light 2: not shown
heavy 2: not shown
B6: iPS:328037 (bispecific antibody, human IgG1, kappa, lambda, N297G)
light 1: B2 light 1
heavy 1: not shown
light 2: not shown
heavy 2: not shown
B7: iPS:328034 (bispecific antibody, human IgG1, kappa, N297G)
light 1: not shown
heavy 1: not shown
light 2: EIVLTQSPGTLSLSPGERATLSCRASQSVSSGYLTWYQQKPGQAPRLLIYGASSRATGIPDRFSGSGSGTDFTLTISRLEPEDFAVYYCQQYGNSLSRFGKGTKLEIKRTVAAPSVFIFPPSDEQLKSGTASVVCLLNNFYPREAKVQWKVDNALQSGNSQESVTEQDSKDSTYSLKSTLTLSKADYEKHKVYACEVTHQGLSSPVTKSFNRGEC
heavy 2: not shown
B8: iPS:328035 (bispecific antibody, human IgG1, kappa, N297G)
light 1: B2 light 1
heavy 1: not shown
light 2: B7 light 2 with K101Q
heavy 2: not shown
B9: iPS:328036 (bispecific antibody, human IgG1, kappa, N297G)
light 1: not shown
heavy 1: not shown
light 2: B7 light 2 with K101Q
heavy 2: not shown
B10: iPS:326669 (bispecific antibody, human IgG2, kappa)
light 1: EIVLTQSPATLSLSPGERATLSCRASQSVGRSLHWYQQKPGQAPRLLIKYASQSLSGIPARFSGSGSGTDFTLTISSLEPEDFAVYYCHQSSRLPFTFGPGTKVDIKRTVAAPSVFIFPPSDEQLKSGTASVVCLLNNFYPREAKVQWKVDNALQSGNSQESVTEQDSKDSTYSLESTLTLSKADYEKHKVYACEVTHQGLSSPVTKSFNRGEC
heavy 1: QVQLVESGGGVVQPGRSLRLSCAASGFTFSRFAMHWVRQAPGKGLEWVAVISYDGGNKYYAESVKGRFTISRDNSKNTLYLQMNSLRAEDTALFYCARGYDVLTGYPDYWGQGTLVTVSSASTKGPSVFPLAPCSRSTSESTAALGCLVKDYFPEPVTVSWNSGALTSGVHTFPAVLQSSGLYSLKSVVTVPSSNFGTQTYTCNVDHKPSNTKVDKTVERKCCVECPPCPAPPVAGPSVFLFPPKPKDTLMISRTPEVTCVVVDVSHEDPEVQFNWYVDGVEVHNAKTKPREEQFNSTFRVVSVLTVVHQDWLNGKEYKCKVSNKGLPAPIEKTISKTKGQPREPQVYTLPPSREEMTKNQVSLTCLVDGFYPSDIAVEWESNGQPENNYDTTPPMLDSDGSFFLYSDLTVDKSRWQQGNVFSCSVMHEALHNHYTQKSLSLSPGK
light 2: B7 light 2 with K101Q
heavy 2: QVQLVESGGGVVQPGRSLRLSCAASGFTFSSYGMHWVRQAPGKGLEWVAVIWYDGSNKYYADSVKGRFIISRDKSKNTLYLQMNSLRAEDTAVYYCARAGGIAAAGLYYYYGMDVWGQGTTVTVSSASTKGPSVFPLAPCSRSTSESTAALGCLVKDYFPEPVTVSWNSGALTSGVHTFPAVLQSSGLYSLESVVTVPSSNFGTQTYTCNVDHKPSNTKVDKTVERKCCVECPPCPAPPVAGPSVFLFPPKPKDTLMISRTPEVTCVVVDVSHEDPEVQFNWYVDGVEVHNAKTKPREEQFNSTFRVVSVLTVVHQDWLNGKEYKCKVSNKGLPAPIEKTISKTKGQPREPQVYTLPPSRKKMTKNQVSLTCLVKGFYPSDIAVEWESNGQPENNYKTTPPMLKSDGSFFLYSKLTVDKSRWQQGNVFSCSVMHEALHNHYTQKSLSLSPGK
B11: iPS:328044 (bispecific antibody, human IgG1, kappa, lambda, N297G)
light 1: not shown
heavy 1: not shown
light 2: not shown
heavy 2: EVQLVESGGGLVKPGGSLRLSCAASGFTFSNAWMSWVRQAPGKELEWVGRIKSKTDGGTTDYTAPVKGRFTISRDDSKNTLYLQMNSLKAEDTAVYYCTTDRTGYSISWSSYYYYYGMDVWGQGTTVTVSSASTKGPSVFPLAPSSKSTSGGTAALGCLVKDYFPEPVTVSWNSGALTSGVHTFPAVLQSSGLYSLESVVTVPSSSLGTQTYICNVNHKPSNTKVDKKVEPKSCDKTHTCPPCPAPELLGGPSVFLFPPKPKDTLMISRTPEVTCVVVDVSHEDPEVKFNWYVDGVEVHNAKTKPCEEQYGSTYRCVSVLTVLHQDWLNGKEYKCKVSNKALPAPIEKTISKAKGQPREPQVYTLPPSRKEMTKNQVSLTCLVKGFYPSDIAVEWESNGQPENNYKTTPPVLKSDGSFFLYSKLTVDKSRWQQGNVFSCSVMHEALHNHYTQKSLSLSPGK
B12: iPS:328039 (bispecific antibody, human IgG1, kappa, lambda, N297G)
light 1: not shown
heavy 1: not shown
light 2: not shown
heavy 2: B11 heavy 2 with S30G, T63A, A90T, Y97F
B13: iPS:326651 (bispecific antibody, human IgG2, kappa, lambda)
light 1: not shown
heavy 1: QVQLQESGPGLVKPSQTLSLTCTVSGGSISSGGYYWSWIRQHPGKGLEWIGYIYYSGNTYYNPSLKSRVTISGDTSKNQFSLKLRSVTAADTAVYYCTRGGAARGMDVWGQGTTVTVSSASTKGPSVFPLAPCSRSTSESTAALGCLVKDYFPEPVTVSWNSGALTSGVHTFPAVLQSSGLYSLKSVVTVPSSNFGTQTYTCNVDHKPSNTKVDKTVERKCCVECPPCPAPPVAGPSVFLFPPKPKDTLMISRTPEVTCVVVDVSHEDPEVQFNWYVDGVEVHNAKTKPREEQFNSTFRVVSVLTVVHQDWLNGKEYKCKVSNKGLPAPIEKTISKTKGQPREPQVYTLPPSREEMTKNQVSLTCLVDGFYPSDIAVEWESNGQPENNYDTTPPMLDSDGSFFLYSDLTVDKSRWQQGNVFSCSVMHEALHNHYTQKSLSLSPGK
light 2: not shown
heavy 2: not shown

In one assay the target is human CGRP receptor (human, UniProt Q16602 23-461; O60894 27-148). Description: cell-based or functional assay.
human CGRP receptor, sequence (Q16602 23-461 limits assumed, chain 1 of 2): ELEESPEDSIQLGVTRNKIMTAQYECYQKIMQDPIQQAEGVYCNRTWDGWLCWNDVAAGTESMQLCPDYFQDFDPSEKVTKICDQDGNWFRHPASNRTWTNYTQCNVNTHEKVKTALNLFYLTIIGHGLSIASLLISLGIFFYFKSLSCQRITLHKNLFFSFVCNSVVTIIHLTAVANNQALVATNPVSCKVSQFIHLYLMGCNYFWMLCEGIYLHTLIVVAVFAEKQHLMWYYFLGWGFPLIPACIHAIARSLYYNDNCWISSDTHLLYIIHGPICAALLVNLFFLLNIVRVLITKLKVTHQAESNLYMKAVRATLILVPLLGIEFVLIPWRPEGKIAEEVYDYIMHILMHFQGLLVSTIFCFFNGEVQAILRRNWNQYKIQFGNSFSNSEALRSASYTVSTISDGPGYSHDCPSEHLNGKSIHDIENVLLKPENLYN
human CGRP receptor, sequence (O60894 27-148 limits assumed, chain 2 of 2): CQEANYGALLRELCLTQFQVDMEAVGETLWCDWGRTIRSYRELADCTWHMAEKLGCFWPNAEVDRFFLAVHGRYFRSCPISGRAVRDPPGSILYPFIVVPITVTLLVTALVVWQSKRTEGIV
On to B1, for which the “% inhibition of human CGRPR” value was 94%.
Still for that read-out and setting: next, B2: 78%; B3: 85%; B4: 67%.
With B5, the “% inhibition of human CGRPR” value is 74%.
Same read-out and setting: as for B6, the figure is 71%; as for B7, 86%.
On the same count and under the same terms, next, B8: 73%.
On the same count and under the same terms, as for B9, the figure is 79%; as for B10, 74%.
Consider B11, for which the “% inhibition of human CGRPR” value was found to be 77%.
On to B12, for which the “% inhibition of human CGRPR” value stood at 74%.
Same read-out and setting: next, B13: 66%.

The next assay concerns the target T1, human PAC1 receptor. Description: cell-based or functional assay.
For B1, the “% inhibition of human PAC1” value stood at 15%.
As for B2, the “% inhibition of human PAC1” value stood at 33%.
Still for that read-out and setting: next, B3: 20%.
The same measure, in the same setting: as for B4, the figure is 29%.
Still for that read-out and setting: as for B5, the figure is 70%; as for B6, 25%.
For the molecule B7, the “% inhibition of human PAC1” value came out at 9%.
On the same count and under the same terms, next, B8: 10%.
Still for that read-out and setting: next, B9: 21%.
Still for that read-out and setting: next, B10: 85%; B11: 5%; B12: 9%.
Turning to B13, the “% inhibition of human PAC1” value was determined as 23%.
